Reference: patent US20110300147A9, “Inhibiting tumor cell invasion, metastasis and angiogenesis” (The Scripps Research institute, priority 2005, published 2011)
pEC50: −log10 of the molar value. Where two headings read alike, the source gives them in different places. Numbered stars: 1 amine (or outer) side, 2 acyl side, 3 side chain; on linkers, the order of the positions; unused ones are H or OH. Peptide text beside a SMILES is read from it. * marks the point of attachment. Doxorubicin(3'-N) = COc1cccc2c1C(=O)c1c(O)c3c(c(O)c1C2=O)C[C@@](O)(C(=O)CO)C[C@@H]3O[C@H]1C[C@H](N*)[C@H](O)[C@H](C)O1; Suc = O=C(CCC(=O)[*:2])[*:1]

Columns and labels:
control 293 cells [1] = assay: WST-1 cytotoxicity assay, control 293 cells; conditions: Homo sapiens, HEK293, 48 h
Description: (§1) Cytotoxic assays. The WST-1 cell proliferation reagent (Roche Molecular Chemicals, Germany) was used to determine cell proliferation by quantification of cellular metabolic activity. Control 293 cells and legumain+ 293 cells were cultivated in microtiter plates (5×10^3 cells per well in 100 μl) and were incubated with serial concentrations of legubicin or doxorubicin for 48 h. Subsequently, 10 μl of WST-1 solution (1 mg/ml WST-1, 25 μM -methyldibenzopyrazine methyl sulfate) was added per well, and mixtures were incubated for an additional 4 h. The tetrazolium salt WST-1 (4-[3-(4-lodophenyl)-2-(4-nitrophenyl)-2H-5-tetrazolio-1,3-benzene disfonate) was cleaved by the mitochondrial succinate-tetrazolium-reductase system to formazan in cells which directly correlates to the number of metabolically viable cells in the culture. The amount of formazan salt was quantified in three replicates by absorbance at 450 nm using a micro-plate reader (Molecular Devices, Palo Alto, Calif.).
(§2) Cytotoxicity assays. The WST-1 cell proliferation reagent (Roche Molecular Chemicals, Germany) was used to determine cell proliferation by quantization of cellular metabolic activity. […] The amount of formazan salt was quantified in three replicates by absorbance at 450 nm using a micro-plate reader (Molecular Devices, Palo Alto, Calif.).

legumain+ 293 cells = assay: WST-1 cytotoxicity assay, legumain+ 293 cells
Description: as §1, §2

HTP cells = assay: WST-1 cytotoxicity assay, HTP cells; format: cell-based; conditions: 50% cell death, 48 h
Description: Cytotoxicity assays. The WST-1 cell proliferation reagent (Roche Molecular Chemicals, Germany) was used to determine cell proliferation by quantization of cellular metabolic activity. […] Subsequently, 10 μl of WST-1 solution (1 mg/ml WST-1, 25 μM -methyldibenzopyrazine methyl sulfate) was added per well, and mixtures were incubated for an additional 4 h. The tetrazolium salt WST-1 (4-[3-(4-Iodophenyl)-2-(4-nitrophenyl)-2H-5-tetrazolio-1,3-benzene disfonate) was cleaved by the mitochondrial succinate-tetrazolium-reductase system to formazan in cells in direct correlation with the number of metabolically viable cells in the culture. The amount of formazan salt was quantified in three replicates by absorbance at 450 nm using a micro-plate reader (Molecular Devices, Palo Alto, Calif.). All results were derived from replicate experiments with similar results.

[2] = system: CT26 murine colon carcinoma; assay: CT26 syngeneic murine colon carcinoma model; format: in vivo, Balb/c mice
Description: Animal models. […] Balb/C mice aged 4 to 6 weeks from the breeding colony were inoculated with 500,000 syngeneic CT26 tumor cells per site subcutaneously in the back. […] Treatment was repeated at 2 day intervals. The human 293 tumor models were generated in WEHI nude mice (The Scripps Research Institute breeding colony). […] Tumor growth and physical signs were monitored daily including any gross evidence of tumor necrosis, local tumor ulceration as well as evidence of toxicity including mobility, response to stimulus, eating, and weight of each animal. These procedures have been reviewed and approved by the Institutional Animal Care and Use Committee at The Scripps Research Institute. The work was conducted in The Scripps Research Institute facilities which are accredited by the Association for the Assessment and Accreditation of Laboratory Animal Care. The Scripps Research Institute maintains an assurance with the Public Health Service, is registered with the United States Department of Agriculture and is in compliance with all regulations relating to animal care and welfare.
Animal models. […] Treatment was three times per week for two weeks.

control 293 cells [3] = assay: Dox and LEG-3 uptake assay, cells not expressing legumain
Description: Dox and LEG-3 uptake assay. Legumain^+ 293 cells or control 293 cells (2.5×10^5 cells/well) were seeded in six-well plates. The culture plates were then incubated for 24 h at 37° C. and 5% CO2, and the medium in each well was replaced with 2 ml of serum-free, antibiotic-free medium containing various concentrations of Dox or LEG-type prodrug compounds. The cells were incubated 1.5 h then washed three times with 2 ml of cold PBS. At this point, cell nuclear positivity for Dox could be analyzed by fluorescent microscopy. For quantitative assays the cells were then lysed by adding 0.5 ml of water and gently rotated on an orbital shaker for 5 min at room temperature. The lysed cells were added to 1.5 ml acidified ethanol, and incubated at 4° C. in the dark for 3 h. Total Dox and LEG content was measured fluorometrically using a Perkin-Elmer LS-50-B spectrofluorometer (excitation: 470 nm; emission: 590 nm). Fluorescence intensity was translated to drug concentration by use of a standard curve prepared from Dox and LEG solutions in cell lysates that were not previously exposed to the drug. Results are expressed as the mean±SD of at least three replicates for each experiment.

in vivo = assay: in vivo; design: species or system Balb/c male mice; conditions: male, Balb/c, mouse
[4] = gross toxicity (weight loss, death) of treated mice; format: in vivo
Description: Tumor growth and signs of physical discomfort were monitored daily. Such signs included any gross evidence of tumor necrosis, local tumor ulceration as well as evidence of toxicity including changes in the animal's mobility, response to stimulus, piloerection, eating, and weight. These procedures have been reviewed and approved by the Institutional Animal Care and Use Committee at The Scripps Research Institute. All the experiments were conducted in The Scripps Research Institute facilities which are accredited by the Association for the Assessment and Accreditation of Laboratory Animal Care. The Scripps Research Institute maintains an assurance with the Public Health Service, and is registered with the United States Department of Agriculture and is in compliance with all regulations relating to animal care and welfare.

[5] = mouse, in vivo, iv
cardiac myocytes = conditions: for apoptosis of cardiac myocytes (TUNEL): treated mice
legumain = legumain (Homo sapiens, UniProt Q99538); assay: cleavage of LEG compounds by legumain; format: biochemical
Sequence of legumain (Q99538 18-323, species assumed): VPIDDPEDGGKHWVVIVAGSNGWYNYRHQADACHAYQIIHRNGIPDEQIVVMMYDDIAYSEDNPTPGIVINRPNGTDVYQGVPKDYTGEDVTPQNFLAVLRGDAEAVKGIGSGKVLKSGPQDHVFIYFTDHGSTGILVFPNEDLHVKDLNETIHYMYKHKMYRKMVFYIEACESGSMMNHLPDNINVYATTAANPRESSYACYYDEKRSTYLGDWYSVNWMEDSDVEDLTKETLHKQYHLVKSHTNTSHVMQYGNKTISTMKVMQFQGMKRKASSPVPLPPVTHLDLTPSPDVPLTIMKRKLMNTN

[6] = system: legumain expressing cells; assay: Dox and LEG-3 uptake assay, legumain expressing cells; format: cell-based, human; conditions: legumain expressing cells in culture
Description: Dox and LEG-3 uptake assay.

[7] = tissue distribution in mice bearing CT26 colon carcinomas; format: in vivo; conditions: twelve hours post injection
Description: Tissue distribution. LEG compounds or Dox was injected i.p. into mice, 12 h later the animals were perfused and the Dox autofluorescence was measured following homogenization in 50% ethanol and then diluted with an equal volume of 50% ethanol containing 0.6 M HCl. Fluorescence measurements were obtained with excitation at 470 nm and emission at 590 nm, concentrations were derived by conversion from a Dox standard curve. Tissues from saline injected mice provided controls. Blood samples were to 0.75 ml with PBS, centrifuged, the pellets washed with PBS and Dox extracted with ethanol, 0.3 M HCl.
Legumain is selectively functional in the tumor microenvironment.

[8] = system: peripheral blood leukocytes; assay: marrow toxicity, peripheral blood leukocyte counts; format: in vivo, Balb C mice; conditions: six times in twelve days
Description: Determination of marrow toxicity. […] On day 7, retro-orbital sinus blood samples were collected into 10 mM EDTA, and counted by hemocytometer after lysis of red blood cells with an acidified methyl violet solution.

[9] = plasma pharmacokinetics in mice bearing CT26 tumors; conditions: single intravenous bolus, MTD of Dox and molar equivalent of LEG-3, CT26 tumor mice

COc1cccc2c1C(=O)c1c(O)c3c(c(O)c1C2=O)C[C@@](O)(C(=O)CO)C[C@@H]3O[C@H]1C[C@H](N)[C@H](O)[C@H](C)O1 [Dox, doxorubicin, reference compound]
pEC50 (control 293 cells [1]): 5.92 | cytotoxic effect on legumain+ 293 cells (legumain+ 293 cells): only slightly more resistant | pEC50 (HTP cells): 5.82 | anti-tumor efficacy ([2]; doses approaching its maximum tolerable dose (MTD)): failed to produce similar anti-tumor efficacy | toxicity ([2]; i.p. 5 mg/kg three times at 2 day intervals): fatal | cell uptake (control 293 cells [3]): rapidly entered cells | LD50 (in vivo; ip): 17.2 µmol/kg | MTD (in vivo; ip): 9.8 µmol/kg | LD50 at 5 days (in vivo; ip, i.p. 5×): 3.4 µmol/kg | MTD at 5 days (in vivo; ip, i.p. 5×): 2.8 µmol/kg | LD50 (in vivo; iv): 25.8 µmol/kg | MTD (in vivo; iv): 18.2 µmol/kg | LD50 at 5 days (in vivo; iv, i.v. 5×): 5.1 µmol/kg | MTD at 5 days (in vivo; iv, i.v. 5×): 3.2 µmol/kg | Average weight loss (%) ([4]; Dose 1.72 μmol/kg): 24% | Death (%) ([4]; Dose 1.72 μmol/kg): 35% | Average weight loss (%) ([4]; Dose 5.4 μmol/kg): 28% | Death (%) ([4]; Dose 5.4 μmol/kg): 75% | decline of plasma concentration [5]: very rapidly declined | apoptosis of cardiac myocytes (TUNEL) (cardiac myocytes): marked apoptosis

COc1cccc2c1C(=O)c1c(O)c3c(c(O)c1C2=O)C[C@@](O)(C(=O)CO)C[C@@H]3O[C@H]1C[C@H](NC(=O)[C@H](CC(C)C)NC(=O)[C@H](CC(N)=O)NC(=O)[C@@H](NC(=O)CCNC(=O)CCC(=O)O)[C@@H](C)O)[C@H](O)[C@H](C)O1 [LEG-2, N-Succinyl-β-alanyl-L-threoinyl-L-Asparaginyl-L-Leucyl-Doxorubicin]
in vivo tumoricidal activity ([2]; mice bearing CT26 tumors): demonstrable in vivo tumoricidal efficacy | cleavage by legumain (legumain): are cleaved by legumain

COc1cccc2c1C(=O)c1c(O)c3c(c(O)c1C2=O)C[C@@](O)(C(=O)CO)C[C@@H]3O[C@H]1C[C@H](NC(=O)[C@H](CC(C)C)NC(=O)[C@H](CC(N)=O)NC(=O)[C@H](C)NC(=O)[C@H](C)NC(=O)CCC(=O)O)[C@H](O)[C@H](C)O1 [LEG-3] (Suc-AANL-{Doxorubicin(3'-N)})
cell uptake (control 293 cells [3]; cell cultures not expressing legumain): remained extracellular | cell uptake [6]: the end product Dox was found in cells | concentrations in cardiac, liver, kidney, spleen and lung tissues compared to Dox [7]: reduced | content in tumor tissues relative to Dox ([7]; CT26 tumors): more than 10 fold | LD50 (in vivo; ip): > 197 µmol/kg | MTD (in vivo; ip): > 197 µmol/kg | LD50 at 5 days (in vivo; ip, i.p. 5×): > 197 µmol/kg | MTD at 5 days (in vivo; ip, i.p. 5×): 98.7 µmol/kg | LD50 (in vivo; iv): > 197 µmol/kg | MTD (in vivo; iv): > 197 µmol/kg | LD50 at 5 days (in vivo; iv, i.v. 5×): 197 µmol/kg | MTD at 5 days (in vivo; iv, i.v. 5×): 74 µmol/kg | Average weight loss (%) ([4]; Dose 1.97 μmol/kg): 3% | Death (%) ([4]; Dose 1.97 μmol/kg): 0% | Average weight loss (%) ([4]; Dose 4.9 μmol/kg): 5% | Death (%) ([4]; Dose 4.9 μmol/kg): 0% | Average weight loss (%) ([4]; Dose 49.4 μmol/kg): 7% | Death (%) ([4]; Dose 49.4 μmol/kg): 0% | Average weight loss (%) ([4]; Dose 98.7 μmol/kg): 8% | Death (%) ([4]; Dose 98.7 μmol/kg): 10% | Average weight loss (%) ([4]; Dose 197.4 μmol/kg): 16% | Death (%) ([4]; Dose 197.4 μmol/kg): 50% | toxicity based on weight loss and mortality ([4]; xenograft bearing mice (FIG. 13E)): negligible | reduction of total WBC counts ([8]; 4.94 μmol/kg): no reductions | reduction of total WBC counts ([8]; 10-fold higher dose than 4.94 μmol/kg): only a slight reduction | histological evidence of cardiac toxicity (cardiac myocytes; 49.4 μmol/kg): no histological evidence of cardiac toxicity | apoptosis of cardiac myocytes (TUNEL) (cardiac myocytes): not observed | decline of plasma concentration [9]: much slower
